The text below walks through data of paper PMC3587138 (Nature, 2011).

B1: recombinant 6×His-tagged Hub1 (natural protein, S. cerevisiae)
chain: MIEVVVNDRLGKKVRVKCLAEDSVGDFKKVLSLQIGTQPNKIVLQKGGSVLKDHISLEDYEVHDQTNLELYYL
B2: N-terminal 65-amino-acid fragment of Snu66 (domain or fragment, S. cerevisiae, UniProt Q12420 1-65, looked up)
chain: MNKTENLSIEETNEIREKLGMKPIPVFQEKNTDHKESLSIEETNELRASLGLKLIPPQQNFNSSP

The target in test [1] is T1, full-length Snu66 (recombinant) (S. cerevisiae, UniProt Q12420 1-587).
T1 sequence (looked up): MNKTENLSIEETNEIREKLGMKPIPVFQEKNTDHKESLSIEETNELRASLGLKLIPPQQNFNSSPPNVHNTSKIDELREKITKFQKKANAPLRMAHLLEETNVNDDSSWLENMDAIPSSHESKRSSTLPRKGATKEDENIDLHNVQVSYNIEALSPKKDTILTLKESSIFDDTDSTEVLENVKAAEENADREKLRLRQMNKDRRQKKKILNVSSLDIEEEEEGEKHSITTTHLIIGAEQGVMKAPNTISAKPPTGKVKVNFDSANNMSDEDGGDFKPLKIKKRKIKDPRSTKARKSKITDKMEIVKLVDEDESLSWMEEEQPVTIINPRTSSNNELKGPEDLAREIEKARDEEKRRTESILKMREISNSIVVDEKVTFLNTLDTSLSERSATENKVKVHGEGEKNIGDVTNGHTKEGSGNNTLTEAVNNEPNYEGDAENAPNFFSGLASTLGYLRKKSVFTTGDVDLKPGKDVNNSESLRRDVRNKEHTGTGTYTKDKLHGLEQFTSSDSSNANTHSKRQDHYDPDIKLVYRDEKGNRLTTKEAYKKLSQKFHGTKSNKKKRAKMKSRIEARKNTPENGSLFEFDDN
Description: ITC.

The target of test [2] is B1. The test can be described thus: NMR titration.

Consider B1, for which, in test [1], the Kd (usually the concentration at which binding is half-saturated) was determined as 590 ± 70 nM.

With B2, in test [2], the binding result was “binds”.
